Data from PMC10760096.

Molecular target: CH848-d949 DE3 design SOSIP Env (HIV-1)
Assay: SPR

B1: DH270 lineage intermediate I5.6 Fab (Fab, V domains shown)
VH: QVQLVQSGAEVKKPGASVKVSCKASGYTFTDYYIHWVRQAPGQGLEWMGWINPNTGRTNSAQKFQGRVTMTRDTSISTAYMELSRLRSDDTAVYYCARGGWIGLYYDSSGYPNFDYWGQGTLVTVSS
VL: QSALTQPASVSGSPGQSITISCTGTSYDVGSYNLVSWYQQHPGKAPKLMIYEVSKRPSGVSNRFSGSKSGNTASLTISGLQAEDEADYYCCSYAGSSTVVFGGGTKLTVL
fold change in association rate (ka) against unmutated CH848-d949: 45 fold
